Data published in patent publication US20240245805A1 (Orna Therapeutics, Inc., priority 2020, published 2024).

B1: Hepatovirus I (nucleic acid)
DNA: GGCTGCCTGTGTCTCAGGGGTAAGTACTGGGGCCGCGTTGACCGTGCGGTACGGTTATGCTTTTAGATTAGGATGTCCGTCTGTCCGGCACTCTCTTTTGCTTAAAATGGCCTTAAATCCATGGGAGGCGTAACCATGGGCCCTTTGTTACCTAGACATGATTGCATTGGGGGCCGTCCTTGGGGCTTAGGCCCCAGCCATTTCTCTTGACTCGTCTAAGAGTTTACTTCATCCTTTTCTTTACTTTATTTTCCAGGCTCTCAGCATGCCGACGGCTCTGACCACTGCGCCCGGTGGGGTTAACTGCATGATTAGCATGCAGCTGTAGGAGTTAAAAGTGCTGACAGGCCAATTCTGACGTAAGTCCACTCTATATTAACTTGATCAAGTAAGGTTGATTGATCTTTGTGAGAGGGTAGGCTACGGGTGAAACCCTCTAGGTTAATACTCATATTGAGAGATACCTCCAGAAGGTGAAGGTTGGCGGATATTGGTGAGTTCTTTTAGGACAAAAACCTTTCAACGCCTGTGGGCCCACCTCACTGGCACAATGCTTTCATCCCCAATTGTGATGGGTAGTTTGGACTGAAATCAGGAGTAACCTGCCCTACGAGTTTAGGGGTAGTTCAGGGGTATTTAGGCTTCCACATTTGATAGAGTTTATGAGAGTGAGCC
modifications: Hepatovirus I
B2: Fipivirus E (nucleic acid)
chain: CTCTTCCGATCTTGGGGGTTCGCCCCCATGTCTCATTTCAACTAGCCGTGTGTCTAGTTAACGCACCGCCTCACCCTGGTCGTTATCGGGTCGGTTCTTGCGACCGTTAGATCGTGAGCGTTTCTGAGGATCAGTTCGTATAAGTTCTCCGGTGTGGCGACCGTAAAATCGTCACGTCCCATGCAATAGATGACGTTAAACTCGTTTGCCAGTTACATAAAGGAATGTTGTTACTTTTAAATTGTCTGTTACATTTAACATCTTGCCAGTATGATGCTACTGTACACTACGGGTGTAGGAACCTTGTAGTGTGACGTATCACTCATATGTGGATGGGTGCTCCAGACCTTTATGGAAGCTCTCAGTTAGTAGTGATCCTTGACTTCATTGAGCCCTGGTAACAGTGGAAGTCAAGATGTATATGTTGCTCAACACACTTCGGTGCTACGAAGCTGTTTGTGGAAGTACTGGCGAGGTTCATTCTGAATCATATGTTTGTCACATAGTCAGGGAGTGCCGTCGCTTACGACGGACCCTTTTTCTTTATAATTACAAATCTGTGTCTCAAGTGTTGTTGGCTGGTTTTCTTCTTCTGTTTTCATTGTTCATATATATACGTCAGAGTGAAAGACTCGGTATATACAAAACTGATCCAGA
modifications: lipid formulation; Fipivirus E
B3: Hepatovirus C (nucleic acid)
DNA: TTCAAAAGCCCCAGCGGGGTTTCATTACCCCGCTGTGGCTTTTGGACTTCCCTAGGATGGGGAAGTAAATTACCATCCTCGCGTTTGCCGTGCGTTAACGGCTACTTTTCTTCTAGCTGTAGAAGTAAAATTCAGCATGTTTTATGTTTGTTTGTCTTGTTTGTTATATACATTTTTACACTCCTACAAATGCACATGAAGAACAGTTTGTAGAGATTAACAAACGCTTAGCTGAACCTAGGTGGTGAATCTAGTAGTAAGATAAGTAGAGGAAGCTATACCTTAAGTTGGTTGGGCCCTCGTGTTTGCTCTATAAACAAAACCAAGTGAGTAGAGTGGATGAACAGTACTAAATCCCTGAGTACAGGGAACCTCACAGGTGTGATACACTTATGTCTATGTGACCTGGTTGGAGGTTGGGCGTGCCCTATGATACTGGAGTGGGAGATCTTTTGGGGAACCCACGTTTTCACACTGCCTGATAGGGTCTTGCCGAGAGACTCACTTGTTTCGGCTGTACTTGTAAC
modifications: Hepatovirus C
B4: Fipivirus C (nucleic acid)
chain: CGCGGTTAAACCCGCGCAACCTTCTTTCAGCCGCGTCTGAGTAGCGCGGTTAGTCCTGATACACAGTTTCCTGTTGGGTACTGTGTCTTCGGGTGAATGCTCTTGTGTGAATGTTTTAGGCTGTTTAAGGGAAGCGTTTCCCCGTGCGCTGTGAGGGTTTCTCACGCTCTTTCGGGGTGCAGTCTCTTCTGTTGTTCATTAAGATGTATGGATGCACTGTTGTGAAGGATTTGTGAACTGGGGATCGACACCCCGTGAGGGGTGCCCCAGTGTCCATAGGAGTTTGCTGGAGAGGTGTGTTGCTGTAGTGACTATCCGTGACCTGGCATTCTAAGGTGTTGACCCCAACCTGTGAGGGTCTGGATCGCAGTGTTGAAGTGCTTTGGAGGGTTCAATGGGGTTTCTGTAGTGGATATTATGTGCTTGACGACTACTGGTACGAGTGTATTGGGGGTCTACATGTGTGA
modifications: lipid formulation; Fipivirus C
B5: Fipivirus A (nucleic acid)
chain: TGCGGGTAAACTCCCGCATGTGTGAATGAGGCGATGTCCCAGGAACTAACTGCCGATCCTGGTTTTAACTACGATCCGTATTTGTTACTAATGCGATATCCCCCCATTGTTTGCCTCCATGTTGTTTTCAACGCTTTTGGCCTTGAGTGTTATCAAGTGTTTTAGCGACATAGTGGGAAGCTACGGCTGCGTCCCCATTTTTGAGTGGCGACCCAGTTTTAGTGGCCACTCTGTCCCTGAACTGCGCTATAATGTGAATTTATGTTCACAAAAACGGACTGATGTAACTGTTAATGACTAAGGAATAGTACCTCACTGAAGTATCAAGACCCCGTTCGAGCGGTGTACATATATGGATGGAAACCTTGTCTGAGTCATCTCGAATACTAATCAATGAGGGATGTCGAGTAAGCATATCATGAACCACATAGAATAGTGGGGTTTCGGGGTTAGAGGCTCTCTGCAGCAATGTATCTCTAACACCATGGCCGAAATGAGAGATAGAGACCACGATGTTTGTGTGTAAGTAATGATGTGTGGAAAGAAAATTCTGAATGTTGGTATGATATCAGTCTAAGGGGAGTGGCTCACCTAAGAGCTACCCAAACATTTCACAGCAGACAACATAACGTACTGAGAGTAGTTGGAAGGTTCCAGAAATCAGT
modifications: lipid formulation; Fipivirus A
B6: Hepatovirus G1 (nucleic acid, listed as Hepatovirus sp.)
DNA: GCAAGGGGTGGTTTTAACCTTGCACGCGTTTACCGTGCGTTAACGGTTTTCCATGTTTGTATGTCTTGTTTGTATTATGTGTTTTGTAAATATTAATTCCTGCAGGTTCAGGGTTCTTTAATCATGTTGGGCTGTACCCACACTCAACTTTTGGCCATAAGTGAGTTTCTTAACGAACCTTTTAACACAGGATGTTATTAGGGCCCAATATTTTCCCTGAGGCCTTCTTTGGCCTCTATTTTTTCCCCTTTTCTATCTCCTTGTATTCCGGGCTCACGTGATGCCAATGGACTGACCCATGCGCCCGTGGGGGTTAACTACTGGAGTAGCCAGTAGCTGTAGGTGCTAAAAGTCACGTACGTGTAAGACTGGACGAGACCTCTCAGCTATAACTGAAAGTAGTAAGTATGTCTGAACTTCTTGAAGGGGTAGGCTACGGGTGAAACCCCTTAGGTTAATACTCATATTGAGAGATACCTCTGATAGGTGAAGGTTTCCGGTAGAGGTGAGTTTAACGACAAAGCCTCTCAACGGATGTGGGCCCACCTCATCAGCAAGATGCTTTCATACCCAATACCGTAGGGGCTGGGTTGTTGAGTTCAGTCCCAAGCGTCCCTCCCGCAAGGTTGTAGGGGTACTCAGGGGCATTTAGGTTTCCACAATTAAACAAATACA
B7: Tremovirus B (nucleic acid)
DNA: TTCAAATGGCCCCTGGGTTGATACCCAGTGGTCATTTGGACACTTTGGTAAGGAGGTGTAATTATCCTTCCCATGTGGAACCTAGTGCTTAGGTTTACTTTATATGTTCTTTGTTTGTCCTTTGTACTTTCTATCGGGCAATCTTGTTGTTCAATACAATATGTATTTGAACTGCCTAAGATAAATTCAGTTTTCAACCAACCCCTCTCTTGGGGTTGTGTCTTTCTTTCTTTCTTATATCCTCTTAAGCTGACTTACTTGCTAATCCGACTCCTCGTCAACGGGAGGGTAAAGCAGTATCACTAGGGTATTGTGATGTAGGAGAAAAAGTAAGTAGAGATAGTGCATGTAACGAAAGTGACTTGGTACTTTAAACTCTCTTAATCCCAAAGTGTGGTATTGGTCATGTTGGAGTAGGCTACGGGTGAAACTCCTTCACATTTAGTAATGTGTTCACACGCTAACGCTACGGTAGATGACAGACTAGGTCTTATTCTCAACGTAGGGGGACGGGTGTATGTTCATGATTAGCCACATATTAAGGTTTTGAGGGGCTGAGTCATATAAGTATGTGCATTAATTTCTGGTACTGGTCCCTGGGGACTGGCCCTTTTCTAGGTTGATTTTAGTTTCCCCAATTTTTAAAAACTAATGAGATTTACGAC
modifications: Tremovirus B
B8: Hepatovirus H2 (nucleic acid, listed as Hepatovirus sp.)
DNA: GTCATGTTTCTCTTTAAGAACACTCAATTTTGGCCATAAGTGAGACTCTTGTCGAACCTTTCATGTCAGGACCATGTTAGGGCCATTATCCTTTTCCCTGGGGCATTCTTCTTGCCCCTGTTTCATCTTTCTATCATCTTTCTTCCGGGCTCTCACAATGCCAATGGAGCGACCGATGCGCACGTCGGGGTTAACCCATGGATTAGCCATGGGCTGTAGCTGCTAAAAGTTGTGACTCCTGAAGCATACTATCAATGGTAGTAGATGTAACTGAAACACTGAAGCTTCTCTGATCTTGAAAGAAGGGTAGGCTACGGGTGAAACCCTTCAGGTTAATACTCATATTGAGAGATACCTTTGGTAGGTTAACGTTGGCGGATAATGTTGAGTTTAACGACAATAAACATTCAACGCCTGTGGGCGAACCTCACCAATTTCATGCTTTGAAGTGAATGTGCGTAGGGTCTCTATCGGAGATGCTATGTGGATGGTGCCCTCCCTGGAAACAGGTTGTAGGGGTACTCAGGTGCACTTAGGTTTCCACATTTTAAAGATTTTTC
B9: Hepatovirus D (nucleic acid)
DNA: CTTTGGATGCCCATAGTGCGGGGGTATAAATACCGCACTCCCTTTAGCTGTTCCGAGGGTATCGGAACCTATATGTTTGTTTTCTGTCTGTCTGTCAGCTTTATGTGTGCTCGTCCCCTTTAGGGCACTCATTTCAGCTTGCTTTCATTCTTTTCTTCCCCGGTTCTCACCTTACCGGAGGCACTGGCCGTTGCGCCCGGCGGGGTCAACCTAGTGATTAGCACTAGGCTGTAGGTGTCTAAAGTGGTGACATTAAGACTTGGTAACTGATTTCAGCACTGTTAACTGATGTTGGGGATGACTTGATTGATCTTCTGGAAGGGGTAGGCTACGGGTGAAACCCCTTATCTTAATACCACTATGTAGAGATAGATTCAGTAGGTTAAGGGCAGTGGATAAGGTTGAGTTCATTTTGGACAATAAACCTTCAACACTGGTGGACCCAATCTCACTGACCAGATGCTTTCTTGACTGATCCTTCAGAGGGGTGATTCTTCTGAATAGGTTGCCTTGACACTGATGCCTGAGACCCATTGGGTCGGGCCTTAAATCATGGAACTCCACTGGACTTTCATGGCCTAGCTTCTGCCTTAGACAGACTCTGGGGCCCCACGACCCTCTGGGCCCTTCGGGGTACTCAGGGGCATTTAGGTTTTTCCACAATTAAAAGAGTTA
modifications: Hepatovirus D

The molecules below were run on HEK293 cells. Details: circular RNA encoding Gluc with the listed IRES (UTR truncated to 675 nt) transfected into HEK293 cells; supernatant after 24 hours.
Type: cell-based, human

Molecule	Expression (luminescence from secreted Gluc protein)
B1	8.79E+05
B2	1.10E+05
B3	5.08E+05
B4	1.09E+05
B5	2.69E+05
B6	1.41E+05
B7	1.31E+05
B8	1.08E+05
B9	1.47E+06
